Results from US20210371536A1 (SEOUL NATIONAL UNIVERSITY R AND DB FOUNDATION, published 2021).

B1: PRb-CN01 x cotinine scFv-Cκ-scFv fusion protein (bispecific antibody) (bispecific antibody)
chain: LTQPSSVSANPGETVKITCSGGSGSYGWFQQKSPGSAPVTVIYSNNQRPSDIPSRFSGSKSGSTNTLTITGVQAEDEAIYYCGTRDSSYVGIFGAGTTLTVLGQSSRSSGGGGSSGGGGSAVTLDESGGGLQTPGGALSLVCKASGFTFSDRAMHWVRQAPGKGLEWVGLITNTGGSTNYGAAVKGRATISRDNGQSTVRLQLNNLRAEDTGTYYCTRGVGSWAHGGRIDAWGHGTEVIVSSGGGGSGGGGSGGGGSRTVAAPSVFIFPPSDEQLKSGTASVVCLLNNFYPREAKVQWKVDNALQSGNSQESVTEQDSKDSTYSLSSTLTLSKADYEKHKVYACEVTHQGLSLPVTKSFNRGESGGGGSGGGGSGGGGSDIQMTQSPSSLSASVGDRVTITCQSSQSPYSNEWLSWYQQKPGKAPKLLIYRISTLASGVPSRFSGSRSGTDFTLTISSLQPEDFATYYCAGGYNFGLFLFGQGTKVEIKGQSSRSSGGGGSSGGGGSEVQLVESGGGLVQPGGSLRLSCAASGHLRRRDWMNWVRQAPGKGLEWVAAIGRSGDTYYATWAKGRFTISADTSKNTAYLQMNSLRAEDTAVYYCSRIPYFGWNNGDIWGQGTLVTVSS
B2: PRb-CC03 x cotinine scFv-Cκ-scFv fusion protein (bispecific antibody) (bispecific antibody)
chain: LTQPSSVSANPGETVKITCSGGTYNYGWYQQKSPGSAPVTVIYWNDKRPSDIPSRFSGSKSGSTGTLTITGVQAEDEAVYYCGSSDSSGLIFGAGTTLTVLGQSSRSSGGGGSSGGGGSAVTLDESGGGLQTPGGTLSLVCKASGFTFSSYAMGWVRQAPGKGLEWVAGIDTAGGTAYGPAVKGRATISRDNGQSTVRLQLNNLRAEDTATYYCTRSSYIDTWGHGTEVIVSSTSGGGGSGGGGSGGGGSRTVAAPSVFIFPPSDEQLKSGTASVVCLLNNFYPREAKVQWKVDNALQSGNSQESVTEQDSKDSTYSLSSTLTLSKADYEKHKVYACEVTHQGLSLPVTKSFNRGESGGGGSGGGGSGGGGSDIQMTQSPSSLSASVGDRVTITCQSSQSPYSNEWLSWYQQKPGKAPKLLIYRISTLASGVPSRFSGSRSGTDFTLTISSLQPEDFATYYCAGGYNFGLFLFGQGTKVEIKGQSSRSSGGGGSSGGGGSEVQLVESGGGLVQPGGSLRLSCAASGHLRRRDWMNWVRQAPGKGLEWVAAIGRSGDTYYATWAKGRFTISADTSKNTAYLQMNSLRAEDTAVYYCSRIPYFGWNNGDIWGQGTLVTVSS
B3: PRb-CN16 x cotinine scFv-Cκ-scFv fusion protein (bispecific antibody) (bispecific antibody)
chain: LTQPSSVSANPGETVKITCSGSSSSYGWYQQKSPGSAPVTLIYENNQRPSNIPSRFSGSKSGSTGTLTITGVQAEDEAVYYCGNADRSNSAGTFGAGTTLTVLGQSSRSSGGGGSSGGGGSAVTLDESGGGLQTPGTALSLVCKASGFTFSSFNMAWVRQAPGKGLEFVGEISNTAGSTFYAPAVKGRATISRDNGQSTVRLQLNNLRAEDTAIYYCAKAAGTCYSHSCTGYIDAWGHGTEVIVSSTSGGGGSGGGGSGGGGSRTVAAPSVFIFPPSDEQLKSGTASVVCLLNNFYPREAKVQWKVDNALQSGNSQESVTEQDSKDSTYSLSSTLTLSKADYEKHKVYACEVTHQGLSLPVTKSFNRGESGGGGSGGGGSGGGGSDIQMTQSPSSLSASVGDRVTITCQSSQSPYSNEWLSWYQQKPGKAPKLLIYRISTLASGVPSRFSGSRSGTDFTLTISSLQPEDFATYYCAGGYNFGLFLFGQGTKVEIKGQSSRSSGGGGSSGGGGSEVQLVESGGGLVQPGGSLRLSCAASGHLRRRDWMNWVRQAPGKGLEWVAAIGRSGDTYYATWAKGRFTISADTSKNTAYLQMNSLRAEDTAVYYCSRIPYFGWNNGDIWGQGTLVTVSS
notes: also called anti-hPDGFR-β x cotinine scFv-Cκ-scFv
B4: PRb-CC02 x cotinine scFv-Cκ-scFv fusion protein (bispecific antibody) (bispecific antibody)
chain: LTQPSSVSANPGETVKITCSGGGGSYGWYQQKSPGSAPVTVIYYNDKRPSDIPSRFSGSKSGSTGTLTITGVQAEDEAVYFCGSYNSSDSLFGAGTTLTVLGQSSRSSGGGGSSGGGGSAVTLDESGGGLQTPGGALSLVCKASGFTFSSYGMFWVRQAPGKGLEWVAGIDTGSGTNYGSAVKGRATISRDNGQSTVRLQLNNLRAEDTGTYFCTRGYAGTIDAWGHGTEVIVSSTSGGGGSGGGGSGGGGSRTVAAPSVFIFPPSDEQLKSGTASVVCLLNNFYPREAKVQWKVDNALQSGNSQESVTEQDSKDSTYSLSSTLTLSKADYEKHKVYACEVTHQGLSLPVTKSFNRGESGGGGSGGGGSGGGGSDIQMTQSPSSLSASVGDRVTITCQSSQSPYSNEWLSWYQQKPGKAPKLLIYRISTLASGVPSRFSGSRSGTDFTLTISSLQPEDFATYYCAGGYNFGLFLFGQGTKVEIKGQSSRSSGGGGSSGGGGSEVQLVESGGGLVQPGGSLRLSCAASGHLRRRDWMNWVRQAPGKGLEWVAAIGRSGDTYYATWAKGRFTISADTSKNTAYLQMNSLRAEDTAVYYCSRIPYFGWNNGDIWGQGTLVTVSS
B5: PRb-CN26 x cotinine scFv-Cκ-scFv fusion protein (bispecific antibody) (bispecific antibody)
chain: LTQPSSVSANPGETVKITCSGGGSYAGSYYYGWYQQKSPGSAPVTVIYDNTNRPSNIPSRFSGSLSGSTDTLTITGVQAEDEAVYFCGGYDGISDTGIFGAGTTLTVLGQSSRSSGGGGSSGGGGSAVTLDESGGGLQTPGGGLSLVCKASGFTFSDRGIHWVRQAPGKGLEWVAGIGNTGSYTAYAPAVKGRATISRDNGQSTVRLQLNNLRAEDTATYYCAKRGFMDAGGIDAWGHGTEVIVSSTSGGGGSGGGGSGGGGSRTVAAPSVFIFPPSDEQLKSGTASVVCLLNNFYPREAKVQWKVDNALQSGNSQESVTEQDSKDSTYSLSSTLTLSKADYEKHKVYACEVTHQGLSLPVTKSFNRGESGGGGSGGGGSGGGGSDIQMTQSPSSLSASVGDRVTITCQSSQSPYSNEWLSWYQQKPGKAPKLLIYRISTLASGVPSRFSGSRSGTDFTLTISSLQPEDFATYYCAGGYNFGLFLFGQGTKVEIKGQSSRSSGGGGSSGGGGSEVQLVESGGGLVQPGGSLRLSCAASGHLRRRDWMNWVRQAPGKGLEWVAAIGRSGDTYYATWAKGRFTISADTSKNTAYLQMNSLRAEDTAVYYCSRIPYFGWNNGDIWGQGTLVTVSS
B6: PRb-CC01 x cotinine scFv-Cκ-scFv fusion protein (bispecific antibody) (bispecific antibody)
chain: LTQPSSVSANLGGTVKITCSGGGSYYGWYQQKSPGSAPVTLIYYNDKRPSDIPSRFSGSKSGSTGTLTITGVQAEDEAVYFCGAWDNSAGYAGFGAGTTLTVLGQSSRSSGGGGSSGGGGSAVTLDESGGGLQTPGGALSLVCKGSGFTFSSYNMGWVRQAPGKGLEFVAGISAADNSTAYGAAVDGRATISRDNGQSTVRLQLNNLRAEDTATYFCIRGGGSIDAWGHGTEVIVSSGGGGSGGGGSGGGGSRTVAAPSVFIFPPSDEQLKSGTASVVCLLNNFYPREAKVQWKVDNALQSGNSQESVTEQDSKDSTYSLSSTLTLSKADYEKHKVYACEVTHQGLSLPVTKSFNRGESGGGGSGGGGSGGGGSDIQMTQSPSSLSASVGDRVTITCQSSQSPYSNEWLSWYQQKPGKAPKLLIYRISTLASGVPSRFSGSRSGTDFTLTISSLQPEDFATYYCAGGYNFGLFLFGQGTKVEIKGQSSRSSGGGGSSGGGGSEVQLVESGGGLVQPGGSLRLSCAASGHLRRRDWMNWVRQAPGKGLEWVAAIGRSGDTYYATWAKGRFTISADTSKNTAYLQMNSLRAEDTAVYYCSRIPYFGWNNGDIWGQGTLVTVSS

What was measured:
mPDGFR-β on NIH3T3 cells = mPDGFR-β on NIH3T3 cells (mouse, UniProt P05622 32-1098); assay: cell-based or functional assay
[1] = target: hPDGFR-β on human pericyte cells (human, UniProt P09619 33-1106); assay: cell-based or functional assay
[2] = target: T1, cynomolgus monkey PDGFR-β (Fc chimera) (cynomolgus monkey); assay: cross-species ELISA on coated antigen, 100 nM bispecific, HRP-anti-human Cκ detection
T1 construct: not shown: human Fc (hFc) and its junction to the receptor part
T1 chain: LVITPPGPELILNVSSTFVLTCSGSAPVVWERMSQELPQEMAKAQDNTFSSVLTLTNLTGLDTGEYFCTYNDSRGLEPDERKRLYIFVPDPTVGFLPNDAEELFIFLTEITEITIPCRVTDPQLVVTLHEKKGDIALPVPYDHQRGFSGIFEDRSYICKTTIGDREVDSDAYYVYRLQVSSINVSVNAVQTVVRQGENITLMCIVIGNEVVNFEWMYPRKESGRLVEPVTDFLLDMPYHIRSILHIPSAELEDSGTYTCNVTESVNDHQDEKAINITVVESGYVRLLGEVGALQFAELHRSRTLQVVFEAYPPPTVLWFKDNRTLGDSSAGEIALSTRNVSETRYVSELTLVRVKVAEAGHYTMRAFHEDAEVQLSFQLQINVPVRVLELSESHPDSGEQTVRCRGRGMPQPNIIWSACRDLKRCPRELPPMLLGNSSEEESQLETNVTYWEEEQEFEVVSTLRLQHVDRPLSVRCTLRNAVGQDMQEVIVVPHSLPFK

[3] = target: T2, Sus scrofa PDGFR-β-Fc chimera (Sus scrofa, UniProt Q6QNF3 33-530 (dog entry)); assay: as above
T2 construct: also called Sus crowfa PDGFR-β; not shown: human Fc (hFc) and its junction to the receptor part
T2 chain: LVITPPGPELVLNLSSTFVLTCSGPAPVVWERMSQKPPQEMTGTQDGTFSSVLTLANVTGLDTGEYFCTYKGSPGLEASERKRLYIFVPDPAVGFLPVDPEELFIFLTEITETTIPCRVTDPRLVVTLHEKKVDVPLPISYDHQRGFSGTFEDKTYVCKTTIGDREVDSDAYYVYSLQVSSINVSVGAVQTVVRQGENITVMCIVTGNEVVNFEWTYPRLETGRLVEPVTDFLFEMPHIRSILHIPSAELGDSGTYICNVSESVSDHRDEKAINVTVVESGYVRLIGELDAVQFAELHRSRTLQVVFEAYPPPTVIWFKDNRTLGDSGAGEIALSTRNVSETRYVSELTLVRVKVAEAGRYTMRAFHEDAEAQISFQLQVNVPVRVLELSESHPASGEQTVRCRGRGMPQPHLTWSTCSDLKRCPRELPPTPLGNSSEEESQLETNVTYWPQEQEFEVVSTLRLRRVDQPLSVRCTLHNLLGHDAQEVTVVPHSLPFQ

Sequence of mPDGFR-β on NIH3T3 cells (P05622 32-1098): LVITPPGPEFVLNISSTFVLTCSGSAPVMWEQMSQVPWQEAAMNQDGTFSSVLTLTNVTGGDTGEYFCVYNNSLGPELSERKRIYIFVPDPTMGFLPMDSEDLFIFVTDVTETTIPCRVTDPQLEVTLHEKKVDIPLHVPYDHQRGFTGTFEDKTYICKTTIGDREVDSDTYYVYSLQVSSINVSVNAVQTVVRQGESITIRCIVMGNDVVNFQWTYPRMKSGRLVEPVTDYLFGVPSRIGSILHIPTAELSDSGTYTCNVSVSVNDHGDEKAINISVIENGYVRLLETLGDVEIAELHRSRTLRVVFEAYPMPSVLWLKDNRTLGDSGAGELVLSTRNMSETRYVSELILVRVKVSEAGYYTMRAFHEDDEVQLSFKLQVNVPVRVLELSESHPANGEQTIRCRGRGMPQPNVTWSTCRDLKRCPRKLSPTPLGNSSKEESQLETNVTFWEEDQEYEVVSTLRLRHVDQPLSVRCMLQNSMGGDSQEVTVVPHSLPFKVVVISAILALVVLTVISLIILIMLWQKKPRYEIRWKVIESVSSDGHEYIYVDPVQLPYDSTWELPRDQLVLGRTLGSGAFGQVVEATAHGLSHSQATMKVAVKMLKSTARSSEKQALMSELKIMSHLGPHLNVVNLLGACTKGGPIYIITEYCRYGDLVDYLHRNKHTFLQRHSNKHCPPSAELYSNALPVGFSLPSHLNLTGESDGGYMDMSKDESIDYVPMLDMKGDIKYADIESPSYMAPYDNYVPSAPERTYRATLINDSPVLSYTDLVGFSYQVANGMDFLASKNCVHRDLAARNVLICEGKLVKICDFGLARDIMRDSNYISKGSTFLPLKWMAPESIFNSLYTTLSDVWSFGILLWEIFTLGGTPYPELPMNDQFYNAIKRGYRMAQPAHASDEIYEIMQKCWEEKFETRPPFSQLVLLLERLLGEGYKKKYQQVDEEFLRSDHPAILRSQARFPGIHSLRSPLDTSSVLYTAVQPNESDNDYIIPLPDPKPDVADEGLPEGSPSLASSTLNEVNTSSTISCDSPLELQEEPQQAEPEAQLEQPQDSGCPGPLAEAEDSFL
Sequence of hPDGFR-β on human pericyte cells (P09619 33-1106): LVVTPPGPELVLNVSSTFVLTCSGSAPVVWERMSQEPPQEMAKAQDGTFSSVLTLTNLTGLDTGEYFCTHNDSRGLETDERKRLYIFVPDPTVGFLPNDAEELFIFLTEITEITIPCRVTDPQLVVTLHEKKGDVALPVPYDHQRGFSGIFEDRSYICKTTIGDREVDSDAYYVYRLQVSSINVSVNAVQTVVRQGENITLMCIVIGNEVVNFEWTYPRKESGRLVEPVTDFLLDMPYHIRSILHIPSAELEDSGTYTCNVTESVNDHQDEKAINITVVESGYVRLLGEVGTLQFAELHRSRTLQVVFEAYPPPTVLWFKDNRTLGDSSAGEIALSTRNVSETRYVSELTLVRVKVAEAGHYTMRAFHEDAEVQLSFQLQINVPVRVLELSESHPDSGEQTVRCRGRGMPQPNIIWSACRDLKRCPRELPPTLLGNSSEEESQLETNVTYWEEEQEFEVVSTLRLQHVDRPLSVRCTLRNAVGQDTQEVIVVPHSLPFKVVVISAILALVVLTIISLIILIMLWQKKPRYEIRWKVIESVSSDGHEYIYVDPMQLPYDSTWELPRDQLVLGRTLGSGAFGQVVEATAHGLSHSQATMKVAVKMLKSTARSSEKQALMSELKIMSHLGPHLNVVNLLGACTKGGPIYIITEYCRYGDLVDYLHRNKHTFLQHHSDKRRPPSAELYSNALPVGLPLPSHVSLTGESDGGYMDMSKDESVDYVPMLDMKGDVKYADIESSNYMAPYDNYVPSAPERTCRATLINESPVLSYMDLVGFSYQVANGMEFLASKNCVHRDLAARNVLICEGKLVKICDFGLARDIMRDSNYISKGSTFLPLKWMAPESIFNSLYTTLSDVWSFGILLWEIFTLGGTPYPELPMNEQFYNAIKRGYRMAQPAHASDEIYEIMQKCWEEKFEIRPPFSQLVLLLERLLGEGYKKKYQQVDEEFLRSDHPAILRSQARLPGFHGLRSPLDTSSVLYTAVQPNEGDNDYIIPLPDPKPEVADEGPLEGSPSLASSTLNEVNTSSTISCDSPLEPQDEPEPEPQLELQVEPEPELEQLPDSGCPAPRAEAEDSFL

Binder	IC50 (nM) of relative cell viability (cellular ATP), NIH3T3 cells, bispecific complexed with cot-duo, with mPDGF-BB (mPDGFR-β on NIH3T3 cells) [nM]	IC50 (nM) of relative cell viability (cellular ATP), NIH3T3 cells, bispecific complexed with cot-duo, without mPDGF-BB (mPDGFR-β on NIH3T3 cells) [nM]	IC50 (nM) of relative cell viability (cellular ATP), NIH3T3 cells, bispecific complexed with cot-duo-cot, with mPDGF-BB (mPDGFR-β on NIH3T3 cells) [nM]	IC50 (nM) of relative cell viability (cellular ATP), NIH3T3 cells, bispecific complexed with cot-duo-cot, without mPDGF-BB (mPDGFR-β on NIH3T3 cells) [nM]	IC50 (nM) of relative cell viability (cellular ATP), human pericyte cells, bispecific complexed with cot-duo, with hPDGF-BB [1] [nM]	IC50 (nM) of relative cell viability (cellular ATP), human pericyte cells, bispecific complexed with cot-duo, without hPDGF-BB [1] [nM]	binding result [2]	binding result [3]
B1	9.7	8.3	30.5	20.1				
B2	20.7	27.3	50.2	67.3				
B3					1.82	2.39	binds	binds
B4	20.6	20.1	89	125				
B5					0.87	0.9	binds	binds
B6	27.1	25	67.2	87.6				
